Test results reported in patent US20250215071A1, “Novel Mcl-1 inhibitor and combination of Mcl-1 and a BH3 mimetic, such as a Bcl-2 inhibitor” (NETRIS PHARMA, priority 2022, published 2025).

Assays:
Mcl-1 = Mcl-1 protein levels by western blot in HeLa UNC5B cells; type: cell-based, Human; conditions: 2 μg/mL Dox
Description: FIG. 4. UNC5B triggers proteasomal degradation of Mcl-1. (A,B): UNC5B-induced apoptosis requires proteasome activity. Stable Hela cells inducible for UNC5B (HeLa UNC5B) were treated with doxycycline (Dox) at 2 μg/mL, in combination with the indicated doses of the proteasome inhibitors MG132 and bortezomib (BTZ). 18 hours after treatment, apoptosis was measured by DNA fragmentation (A) and caspase-3 activity (B) (n=3-4, **** p<0.0001, ordinary two-way ANOVA with Tukey's multiple comparisons test). Values are given as means±SEM Treatment with proteasome inhibitors was sufficient to strongly reduce apoptosis induction upon UNC5B over-expression. (C): UNC5B triggers Mcl-1 degradation. HeLa UNC5B cells were treated with 2 μg/mL of Dox, in combination with bortezomib (BTZ, 1 μM) and the pan-caspase inhibitor Q-VD-OPh (QVD, 10 µM) inhibitors. 16 hours after treatment, cells were lysed by scraping and sonication in SDS-containing buffer. Protein levels of Mcl-1, Bcl-2 and Bcl-XL, as well as of UNC5B and B-actin, used as housekeeping gene, were evaluated by western blot. […] UNC5B over-expression specifically promoted Mcl-1 protein decrease. […] (D): Mcl-1 degradation induced by UNC5B requires COMMD2/CRL3 complex. HeLa UNC5B cells were transfected with scramble (siCTRL), COMMD2 (siCOMMD2) or RBX1 (siRBX1) siRNAs. […] Protein levels of Mcl-1, UNC5B and Ku80, used as housekeeping protein, were evaluated by western blot. […] Stable HeLa UNC5B cells, constitutively expressing Mcl-1 or empty vector, were treated with doxycycline and apoptosis was evaluated 18 hours later by DNA fragmentation (n=3, ^nsp>0.05, ordinary two-way ANOVA with Sidak's multiple comparisons test). […] Stable HeLa UNC5B cells, constitutively expressing Mcl-1, Bcl-2 or Bcl-XL were treated with Dox and protein levels were evaluated as described in (C). […] 18 hours later, protein levels of Mcl-1, UNC5B and β-actin, used as housekeeping gene, were evaluated by western blot. […] Cells were harvested at the indicated times after CHX treatment, and protein levels were assessed by western blot. […]

H322 cells = assay: Xenografts of stable H322 cells in nude mice, tumor growth; type: in vivo, NMRI nude mice; conditions: 10 mg/Kg intravenously three times per week, vs Iso-mAb
Description: FIG. 3. COMMD2 is required for UNC5B-induced cell death and tumor suppression. (A): Silencing COMMD2 inhibits UNC5B-induced DNA fragmentation. Stable Hela cells inducible for UNC5B were transfected with two distinct siRNA scramble (siCTRL) or targeting COMMD2 (siCOMMD2-1 and -2). Upon treatment for 18 hours with the indicated concentrations of doxycycline (Dox), DNA fragmentation was evaluated through FACS analysis (n=3, **** p<0.0001, Ordinary two-way ANOVA). Values are given as means±SEM. (B, C, D): Tumor growth inhibition driven by netrin-1 interference necessitates UNC5B and COMMD2. NMRI nude mice were engrafted with stable H322 cells, knock-down for luciferase (sgLUC, used as a non-targeting control), UNC5B (sgUNC5B) or COMMD2 (sgCOMMD2), generated with CRISPR-Cas-9-KRAB strategy. Tumors obtained from nude mice engrafted with stable H322 cells were lysed and gene expression was evaluated by quantitative RT-PCR (n=2-3, *p<0.05, Kruskal-Wallis test with Dunn's multiple comparisons test) (B). After tumor volume reached 50 mm^3, mice were intravenously treated three time per week with anti-netrin-1 (NP137) or control (Iso-mAb) antibodies and tumor growth was evaluated (n=10 mice/group, ^nsp>0.05, *p<0.05, Mann-Whitney test, two-tailed) (C). A histogram illustrating tumor volumes at 35 days after first treatment is indicated in (D) (n=10 mice/group, ^nsp>0.05, *p<0.05, *** p<0.001, Kruskal-Wallis test with uncorrected Dunn's test). (E). Silencing of UNC5B and COMMD2 restrains in vivo NP137-induced apoptosis. After sacrificing the mice, tumors were resected and apoptosis was quantified by immunostaining of active cleaved caspase-3. […]
5-week-old female athymic NMRI nude mice were obtained from Janvier Labs (Saint Bertevin, France). […] Tumor size was measured three times per week with a caliper. Tumor volume was calculated according to the formula v=0.5× (l×w2), where v is volume, l is length, and w is width. […]

| Molecule | degradation of ectopically-expressed Mcl-1 (Mcl-1; HeLa UNC5B cells constitutively expressing Mcl-1, 18 hours) | Mcl-1 protein levels / degradation triggered by UNC5B (Mcl-1; endogenous Mcl-1, BTZ 1 μM, QVD 10 µM, 16 hours) | tumor growth (H322 cells; H322 tumors knocked-out of COMMD2 (sgCOMMD2)) | tumor growth (H322 cells; H322 tumors knocked-out of UNC5B (sgUNC5B)) | tumor growth (H322 cells; control H322 cells (sgLUC)) |
| --- | --- | --- | --- | --- | --- |
| CC(C)C[C@H](NC(=O)[C@H](Cc1ccccc1)NC(=O)c1cnccn1)B(O)O [bortezomib] | restrained the degradation | increased but similar Mcl-1 protein levels in both untreated and doxycycline-treated cells | – | – | – |
| NP137: humanized anti-netrin-1 monoclonal antibody, VH SEQ ID NO: 22, VL SEQ ID NO: 16, human IgG1 (antibody, V domains shown, human IgG1 constant region; humanized variant; MISC_FEATURE - CDR according to IGMT) VH: QVQLQQSGPGLVKPSQTLSLTCAISGYTFTSYNMHWVRQATGQGLEWMGAIYPGNGDTSYNQKFKGRLTISKDTSKNQVVLTMTNMDPVDTATYYCARGGTGFAYWGQG VL: DIQMTQSPSSLSASVGDRVTITCKASQSVSNDVAWYQQKPGQAPRLLIYYASNRYTGIPPRFSGSGYGTDFTLTINNIESEDAAYYFCQQDYSSPWTFGQG | – | – | less sensitive | less sensitive | strongly inhibited tumor growth |
